The values that follow come from US20080213277A1.

Assay [1] concerns the target linear hepcidin variant (human). Nature of the assay: BIAcore: 1 nM antibody preincubated with 10 nM of this hepcidin form in solution, then run over immobilized rhHepc surface; % = free antibody still binding the surface (low % = strong binding to the solution form). On the technique in general: SPR reads the build-up and loss of mass on a sensor chip optically.
Assay [2] has as its target C1-C8, C3-C6 hepcidin variant (human). Described as above.

B1: murine anti-human hepcidin monoclonal antibody 2.41 (antibody, V domains shown)
VH: QIQLVQSGPELKKPGETVKISCKASGYTFTTYGMSWVKQAPGKGLKWMGWINTSSGVPTYADDFMGRFAFSLETSASTAYLQINNLKNEDTATYFCARDRYYGEVAYWGQGTLVTVSA
VL: DIVLTQSPASLAVSLGQRATISCRASESVDSFGNSFMHWYQLKPGQPPKLLIYRASNLESGIPARFSGSGSRTDFTLTINPVEADDVAIYYCQQSNEEYTFGGGTKLEIK
For the molecule B1, the Binding to Hepcidin Surface (%) in assay [1] was determined as 99%; in assay [2] it was 1%.

B2: rat anti-human hepcidin monoclonal antibody R9 (antibody, V domains shown)
VH: QVTLKESGPGILQPSQTLSLTCSFSGFSLSTSGICVSWIRQPSGKGLEWLATICWEDSKGYNPSLKNRLTISKDTSNNQAFLKITSVDTADTAIYYCARPLNYGGYSELELDYWGQGVMVTVSS
VL: DIQMTQSPSLLSASVGDRVTLSCKASQNIYKYLNWYQQKLGEAPKLLIYYTNSLQTGIPSRFSGSGSGTDFTLTISSLQPEDVATYYCYQYNSGPTFGAGTKLELK
For B2, the Binding to Hepcidin Surface (%) in assay [1] was 100%; in assay [2], 63%.

B3: murine anti-human hepcidin monoclonal antibody Ab43 (antibody, V domains shown)
VH: QIQLVQSGPELKKPGETVKISCKASGYTFTTYGMSWVKQAPGKGLKWMGWINTYSGVPTYADDFKGRFAFSLETSASTAYLQINNLKNEDTATYFCASLWYYGRAFDYWGQGTTLTVSS
VL: NIVLTQSPASLAVSLGQRATISCRASESVDSYGNSFMHWYQQKPGQPPKLLIYLASNLESGVPARFSGSGSRTDFTLTIDPVEADDAATYYCQQNNEDRTFGGGTKLEIK
In the case of B3, the Binding to Hepcidin Surface (%) came out at 100% in assay [1] and 25% in assay [2].

B4: murine anti-human hepcidin monoclonal antibody 2.7 (antibody, V domains shown)
VH: QIQLVQSGPELKKPGETVKISCKASGYTFTTYGMSWVKQAPGKGLKWMGWINTYSGVPTYADDFKGRFAFSLETSASTAYLQINNLKNEDTATYFCGRDHYYGEVAYWGQGTLVTVSA
VL: DIVLTQSPASLAVSLGQRATISCRASESVDSYGNSFMHWYQQKPGQPPKLLIYRASNLESGIPARFSGSGSRTDFTLTINPVEADDVATYYCHQSNEEYTFGGGTKLEIK
On to B4, for which the Binding to Hepcidin Surface (%) in assay [1] came out at 100%; in assay [2], 3%.
